The record followed here is paper PMC3078936 (PLoS ONE, 2011).

For this experiment, the target named is T1, DYNLL1 (Homo sapiens, UniProt P63167).
T1 construct: 6xHis (N); made in house; host or cells: E. coli BL21(DE3)Star
The experiment can be described thus: Isothermal titration calorimetry of peptide/protein binding to DYNLL1. The following applies: ITC binding enthalpy, PBS + 3 mM 2-mercaptoethanol pH 7.4, 299 K. How it is done:
Binding parameters of the in vitro evolved Ac-[…] and naturally evolved Ac-DKSTQTD consensus peptides were determined by isothermal titration calorimetry (ITC). Synthetic peptides were used and N-terminal acetylation was applied to better mimic a non-terminal peptide motif by avoiding the positively charged N-terminus. In order to elucidate the particular contribution of Val-5 to the binding affinity, several control peptides were produced. The in vitro evolved Val-5 was replaced with a glycine (Gly-5) to assess side chain function. In a further truncated variant the entire amino acid residue was replaced with an acetate group (Ac-5) to assess the function of the amide group at position −5. The same variations of Val-5, Gly-5 or Ac-5 were also introduced in the framework of the naturally evolved consensus peptide. DYNNL1 binding of all six variants was analyzed by ITC. In all measurements the stoichiometry of binding was 1∶1 (2 peptides binding to one homodimer DYNNL1). […]
All peptides and DYNLL1 were dialyzed overnight in PBS buffer supplemented with 3 mM 2-mercaptoethanol (pH 7.4). […] For each experiment the thermodynamic parameters were determined at 299 K. We used a VP-ITC instrument from Microcal and the data were fitted by the software package Origin 5.0 (OriginLab) using the simple A + B to AB binding model. […]
(In ITC the heat of successive injections is recorded.)

T1 sequence (P63167 whole entry): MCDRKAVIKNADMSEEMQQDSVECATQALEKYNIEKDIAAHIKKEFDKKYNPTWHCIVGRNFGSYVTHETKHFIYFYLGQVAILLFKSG

B1: EML3 (8-94): recombinant fragment of EML3 (residues 8–94) containing a coiled coil domain and the in vitro evolved consensus motif (protein, UniProt Q32P44 8-94, looked up, fragment)
chain: GDGPAREALQSLSQRLRVQEQEMELVKAALAEALRLLRLQVPPSSLQGSGTPAPPGDSLAAPPGLPPTCTPSLVSRGTQTETEVELK
Regarding B1, the ΔH is -7.74 kcal/mol.
